# B1: Osteocalcin P15-N26 peptide, uncarboxylated (Glu) form (peptide 5) (Homo sapiens; C23S) (peptide)
# chain: PLEPRREVSELN
# B2: Model peptide 1, Ac-GGEGG-NH2 (synthetic) (peptide)
# chain: GGEGG
# Experiments:
# Assay in all cases: NMR
# Details in all cases: 286 K (pH measured at 21 °C), none, MilliQ water with 3.2 mM DSS-d6 and 0.13 mM EDTA, pH adjusted with NaOH/HCl, random coil
# [1] = target: Glu17 (UniProt position 68, …)
# [2] = target: Glu24 (UniProt position 75, …)
# [3] = target: Glu21 (UniProt position 72, …)
# [4] = target: Glu3 (position 3, ---GGEGG---)
# [5] = 50 mM CaCl2, total ionic strength not stated, 50 mM CaCl2 (5-fold excess over 10 mM peptide)
# [6] = not stated (no added salt; varies with NaOH/HCl additions), no Ca2+, 10 mM peptide
protein,measurement,setting,value
B1,pKa,[1]; [5],4.25
same,pKa,[1]; [6],4.26
same,pKa,[2]; [5],4.20
same,pKa,[2]; [6],4.19
same,pKa,[3]; [5],4.28
same,pKa,[3]; [6],4.33
B2,pKa,[4]; [5],4.30
same,pKa,[4]; [6],4.34

# Reference: paper PMC12312033
